Results published in the supplement of paper PMC9732359.
± gives the uncertainty stated by the source.

Assay: protein stability index of a GFP-peptide fusion (yeast GPS) (PSI 1-4); higher = more stable; sorted into four equal gates, so the index is relative within each strain
Settings: pdr5∆
In short: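 Each library plasmid carries Cherry plus GFP with a tiled 17-residue yeast protein peptide fused downstream, and the pooled library was carried in yeast. Mid-log cultures in leucine-free medium were sorted into four equal gates by GFP/Cherry ratio. Reads from Illumina sequencing of PCR-amplified plasmids from each gate were assigned to strains by barcodes. Per peptide, the protein stability index was computed as the summed products of gate read frequency and gate number.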

Q: With QIVQVLKQPPFQITLSS [SSN8] as the sequence, how does the protein stability index read?
A: 2.06 ± 0.074

Q: For QKESDAKNETNSESDSK [ITC1], which protein stability index is on record?
A: 3.03 ± 0.046

Q: Which protein stability index does the source give for QKGTIGITYRREDMPFT [RPB2] here?
A: 2.68 ± 0.08

Q: For QKIVVVRAEELNISGEF [RPL16A], which protein stability index is on record?
A: 3.06 ± 0.21

Q: With QKKVPDKLLDPTTVSYI [SCL1] as the sequence, how does the protein stability index read?
A: 2.28 ± 0.047

Q: With QKLMQLVVLTDVVERLH [RGR1] as the sequence, how does the protein stability index read?
A: 2.38 ± 0.049

Q: For QKSGRPVKSIRARLKGK [RPO21], which protein stability index is on record?
A: 2.23 ± 0.12

Q: For QKSINHPPDFKRMLLSL [SNF2], which protein stability index is on record?
A: 1.42 ± 0.039

Q: Which protein stability index does the source give for QKSTELLIRKLPFQRLV [HHT1] here?
A: 1.12 ± 0.17

Q: For QLAIRNDDELNKLLGNV [HTA1], which protein stability index is on record?
A: 3.38 ± 0.071

Q: With QLFHNLISIHSRENNSE [YJL039C/NUP192] as the sequence, how does the protein stability index read?
A: 2.61 ± 0.076

Q: For QLGYGKFLILNENPINK [NUT1], which protein stability index is on record?
A: 2.53 ± 0.12

Q: For QLLDTSNQRFKDLQWLE [SIN4], which protein stability index is on record?
A: 2.96 ± 0.076

Q: For QLLGDVMTYKGEVLGIT [RPO31], which protein stability index is on record?
A: 3.43 ± 0.069

Q: Which protein stability index does the source give for QLLKEDSEKRNKYAAML [RRP45] here?
A: 2.81 ± 0.089

Q: With QLLLLSDERAKLELINR [LRP1] as the sequence, how does the protein stability index read?
A: 3.06 ± 0.18

Q: With QLLQRIPNIPPNINTWQ [GAL11] as the sequence, how does the protein stability index read?
A: 2.72 ± 0.049

Q: With QLPANMVHLYSIVEECD [RPC17] as the sequence, how does the protein stability index read?
A: 1.98 ± 0.045

Q: With QLPKQLWRNFCRKLSFS [ITC1] as the sequence, how does the protein stability index read?
A: 2.66 ± 0.05

Q: Which protein stability index does the source give for QLTVCGAIIGWTRGTGL [FAS2] here?
A: 1.18 ± 0.067

Q: With QLYESGNPVNDANLLGA [COR1] as the sequence, how does the protein stability index read?
A: 2.65 ± 0.057

Q: For QLYKARMSIKLLRLASK [POP1], which protein stability index is on record?
A: 1.39 ± 0.072

Q: With QMAKDVTTFLNWCAEPE [CYT1] as the sequence, how does the protein stability index read?
A: 3.25 ± 0.067

Q: For QMIDTSILPTRDDLFVR [NUT1], which protein stability index is on record?
A: 2.88 ± 0.062

Q: Which protein stability index does the source give for QNDQWSIQMEFMLRKQD [SSN2] here?
A: 2.58 ± 0.088

Q: With QNNSKHTEDTVNESRNS [SRB5] as the sequence, how does the protein stability index read?
A: 2.73 ± 0.1

Q: For QNSDASTLEPTLRKELE [YIL149C/MLP2], which protein stability index is on record?
A: 1.68 ± 0.091

Q: Which protein stability index does the source give for QNTIDDTEMKMKSLLTE [YIL149C/MLP2] here?
A: 3.39 ± 0.054

Q: For QNYLKTYNEDIPVEILV [PRE9], which protein stability index is on record?
A: 2.05 ± 0.084

Q: For QPEDLEPAEANEENDLD [RPB2], which protein stability index is on record?
A: 3.15 ± 0.19

Q: Which protein stability index does the source give for QPIFVAHTAGRYANKRF [RPS5] here?
A: 2.03 ± 0.072

Q: For QPQALQKSGRPVKSIRA [RPO21], which protein stability index is on record?
A: 2.29 ± 0.069

Q: For QPSSSRYNGGNDNIGAN [SMB1], which protein stability index is on record?
A: 3.49 ± 0.08

Q: Which protein stability index does the source give for QPVLEKPLKKGSADIGA [SIR4] here?
A: 3.1 ± 0.061

Q: Which protein stability index does the source give for QQQQQQHIYPSSTPGVA [GAL11] here?
A: 2.78 ± 0.029

Q: Which protein stability index does the source give for QQQQQQQQQQQQQQQQQ [GAL11] here?
A: 2.78 ± 0.028

Q: With QQQQQQQVPPLPDELTL [DLS1] as the sequence, how does the protein stability index read?
A: 2.72 ± 0.038

Q: For QQQSADHDDSTDDADDH [NSL1], which protein stability index is on record?
A: 2.91 ± 0.064

Q: Which protein stability index does the source give for QQQTSTFNSKPVRTIVP [SIR4] here?
A: 2.77 ± 0.036

Q: For QQQVLNKLRQQAIAKNN [SNF5], which protein stability index is on record?
A: 1.2 ± 0.072

Q: Which protein stability index does the source give for QQRKQKKNRDKKIFGTG [RPS24A] here?
A: 3.14 ± 0.055

Q: Which protein stability index does the source give for QQTAQTQLEQQRQLLVQ [SNF5] here?
A: 3.15 ± 0.14

Q: For QQTEKLNPQVADINKNF [RPN2], which protein stability index is on record?
A: 2.42 ± 0.058

Q: Which protein stability index does the source give for QRDAVTLFCCLLRSRLA [RPO21] here?
A: 1.92 ± 0.044

Q: With QRKKQIAFPQRKYAIKA [RPL35A] as the sequence, how does the protein stability index read?
A: 1.51 ± 0.078

Q: With QRKNGVTNSPLFQTIEK [ECM29] as the sequence, how does the protein stability index read?
A: 3.1 ± 0.14

Q: For QRSKKIQPTAKVVYIQR [DIS3], which protein stability index is on record?
A: 2.56 ± 0.22

Q: With QRVFDETEQEYSPSNEI [YDL116W/NUP84] as the sequence, how does the protein stability index read?
A: 3.46 ± 0.069

Q: Which protein stability index does the source give for QSDFCLSWCPSRFSPEK [YGL100W/SEH1] here?
A: 3.02 ± 0.19

Q: For QSGSNSGNNSKKRKNKS [ROX3], which protein stability index is on record?
A: 3.09 ± 0.097

Q: With QSISNENDVKPISIEAP [SWI3] as the sequence, how does the protein stability index read?
A: 2.34 ± 0.044

Q: Which protein stability index does the source give for QSISQNSSSSTPNTNSN [SWI1] here?
A: 2.8 ± 0.049

Q: With QSKEILKGLLQELKADS [SRP72] as the sequence, how does the protein stability index read?
A: 2.13 ± 0.27

Q: Which protein stability index does the source give for QSLANIQYVTYLLTQQQ [SOH1] here?
A: 2.4 ± 0.045

Q: Which protein stability index does the source give for QSLELMIYDDAHEISQG [BRR2] here?
A: 2.92 ± 0.037

Q: For QSQPIANQSATSTPPPP [SNF5], which protein stability index is on record?
A: 2.66 ± 0.037

Q: For QSRRYNLRRHSDIVLDK [SIN4], which protein stability index is on record?
A: 3.21 ± 0.034

Q: For QTFEAKLHFKDTKPFLN [NUT1], which protein stability index is on record?
A: 2.87 ± 0.12

Q: For QTGTKPVLKKKAAFLGS [COR1], which protein stability index is on record?
A: 3.14 ± 0.085

Q: For QTHPDTGISQKSMSILN [HTB1], which protein stability index is on record?
A: 3.01 ± 0.069

Q: Which protein stability index does the source give for QTQEFFLSSFDDVLQTI [YJL039C/NUP192] here?
A: 2.27 ± 0.048

Q: Which protein stability index does the source give for QTSLVRMFEKNVMLNIY [SKI6] here?
A: 3.17 ± 0.11

Q: For QVIFEIFEISLQRKDYT [YML103C/NUP188], which protein stability index is on record?
A: 2.19 ± 0.056

Q: With QVKVKGQLGEMAKCLDN [YCS4] as the sequence, how does the protein stability index read?
A: 3.17 ± 0.13

Q: For QVNGNIRKVSNDRESVL [SMC3], which protein stability index is on record?
A: 1.88 ± 0.079

Q: For QVSKKLSSIEASLKIKN [SMC3], which protein stability index is on record?
A: 1.7 ± 0.085

Q: Which protein stability index does the source give for QVVTDYNILGNLGIPKI [SSN2] here?
A: 2.96 ± 0.072

Q: Which protein stability index does the source give for QYDFKAVLEENDENDDE [RPN14] here?
A: 3.24 ± 0.075

Q: With QYGYSGSSAGMNGRSLT [SNF6] as the sequence, how does the protein stability index read?
A: 3.11 ± 0.061

Q: With QYNIPPEREVLVRELYQ [RRP6] as the sequence, how does the protein stability index read?
A: 2.15 ± 0.089

Q: With RAEAKAQGVAVQLKRQP [RPL21A] as the sequence, how does the protein stability index read?
A: 2.19 ± 0.08

Q: For RAGKYELVKSYSWLLFE [YJR042W/NUP85], which protein stability index is on record?
A: 1.78 ± 0.08

Q: For RAHRIGQKNEVRILRLI [SNF2], which protein stability index is on record?
A: 1.79 ± 0.051

Q: For RAKPVTNSSILLGKILP [RRP6], which protein stability index is on record?
A: 2.14 ± 0.077

Q: For RALYTPFLLMELHKKLV [YDL116W/NUP84], which protein stability index is on record?
A: 1.45 ± 0.087

Q: With RAPKVIHGQDFQFFPKE [ISW2] as the sequence, how does the protein stability index read?
A: 2.47 ± 0.069
